Kd data for 6 molecules are collected here from article PMC5922973, “Topoisomerase VI senses and exploits both DNA crossings and bends to facilitate strand passage” (eLife, 2018).

The Kd is a measure of binding affinity in units of concentration.

Common to all, as to test: fluorescence anisotropy; Fluorescence anisotropy, 20 nM FAM-labelled DNA, topo VI 0 and 3.9-4000 nM, no nucleotide; buffer, salt, pH and temperature not given in supplied text
In one data set the target is T1, topo VI KGRR-AAA (Methanosarcina mazei, UniProt Q8PUB7;Q8PUB8 1-369;1-621, K186A;R188A;R189A).
T1 sequence 1: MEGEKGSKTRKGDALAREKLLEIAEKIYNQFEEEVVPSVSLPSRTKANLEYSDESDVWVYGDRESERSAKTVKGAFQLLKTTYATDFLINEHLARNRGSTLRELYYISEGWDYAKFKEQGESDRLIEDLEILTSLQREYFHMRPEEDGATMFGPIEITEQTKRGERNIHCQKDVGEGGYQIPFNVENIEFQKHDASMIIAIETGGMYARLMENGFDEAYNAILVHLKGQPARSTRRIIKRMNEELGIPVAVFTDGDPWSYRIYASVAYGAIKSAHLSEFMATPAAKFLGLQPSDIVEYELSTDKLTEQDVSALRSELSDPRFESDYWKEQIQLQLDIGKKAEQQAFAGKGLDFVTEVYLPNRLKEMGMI
T1 sequence 2: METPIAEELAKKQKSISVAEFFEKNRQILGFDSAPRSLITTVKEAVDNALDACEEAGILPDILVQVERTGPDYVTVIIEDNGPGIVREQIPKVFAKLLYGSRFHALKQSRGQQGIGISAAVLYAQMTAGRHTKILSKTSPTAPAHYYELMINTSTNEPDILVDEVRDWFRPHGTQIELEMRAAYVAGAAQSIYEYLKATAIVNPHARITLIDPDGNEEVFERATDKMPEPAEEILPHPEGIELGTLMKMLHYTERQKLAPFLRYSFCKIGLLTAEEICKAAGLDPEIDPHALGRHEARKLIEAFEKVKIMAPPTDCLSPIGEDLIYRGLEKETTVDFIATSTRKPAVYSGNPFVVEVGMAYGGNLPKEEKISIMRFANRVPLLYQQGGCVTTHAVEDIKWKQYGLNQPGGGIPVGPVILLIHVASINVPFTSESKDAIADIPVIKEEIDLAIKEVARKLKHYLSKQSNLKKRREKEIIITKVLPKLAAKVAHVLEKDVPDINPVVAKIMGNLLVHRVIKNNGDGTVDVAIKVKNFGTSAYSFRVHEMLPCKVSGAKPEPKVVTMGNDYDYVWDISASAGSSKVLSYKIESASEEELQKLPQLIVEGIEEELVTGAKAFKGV
As to conditions: protein: recombinant; tags: N-terminal His6-TEV on Top6B, removed; chain copies: 2;2; label: 5'-FAM strand 1; blunt.

The target of the next data set is T2, topo VI holoenzyme WT (Methanosarcina mazei, UniProt Q8PUB7;Q8PUB8 1-369;1-621).
T2 sequence 1: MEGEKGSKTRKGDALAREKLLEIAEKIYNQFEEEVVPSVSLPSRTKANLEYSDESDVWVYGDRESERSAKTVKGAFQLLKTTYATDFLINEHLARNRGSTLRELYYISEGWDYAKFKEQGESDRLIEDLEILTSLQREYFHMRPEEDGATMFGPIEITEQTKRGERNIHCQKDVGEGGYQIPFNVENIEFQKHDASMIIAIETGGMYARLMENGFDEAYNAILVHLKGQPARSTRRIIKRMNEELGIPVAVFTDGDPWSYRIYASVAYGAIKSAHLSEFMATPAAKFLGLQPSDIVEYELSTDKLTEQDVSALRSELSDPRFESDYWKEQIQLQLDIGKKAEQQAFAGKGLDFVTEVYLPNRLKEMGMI
T2 sequence 2: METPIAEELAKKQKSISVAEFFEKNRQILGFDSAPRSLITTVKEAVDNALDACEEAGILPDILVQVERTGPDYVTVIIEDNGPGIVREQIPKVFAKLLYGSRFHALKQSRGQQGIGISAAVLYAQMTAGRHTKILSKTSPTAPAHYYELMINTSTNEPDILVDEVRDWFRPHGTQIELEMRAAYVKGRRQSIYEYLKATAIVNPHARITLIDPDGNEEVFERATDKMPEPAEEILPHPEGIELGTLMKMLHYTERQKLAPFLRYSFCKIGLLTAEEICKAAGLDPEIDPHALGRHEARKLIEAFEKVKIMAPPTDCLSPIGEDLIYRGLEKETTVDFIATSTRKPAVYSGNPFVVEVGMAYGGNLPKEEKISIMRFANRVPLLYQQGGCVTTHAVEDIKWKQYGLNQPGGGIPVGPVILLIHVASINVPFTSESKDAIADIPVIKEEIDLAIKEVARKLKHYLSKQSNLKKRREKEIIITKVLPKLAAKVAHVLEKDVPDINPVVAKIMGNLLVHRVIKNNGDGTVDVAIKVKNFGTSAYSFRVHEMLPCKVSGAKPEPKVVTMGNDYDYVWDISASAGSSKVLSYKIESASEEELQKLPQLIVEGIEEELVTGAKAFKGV
As to conditions: protein: recombinant, tags: N-terminal His6-TEV on Top6B, removed, chain copies: 2;2.

In another data set the target is T3, topo VI H2TH-AAA (Methanosarcina mazei, UniProt Q8PUB7;Q8PUB8 1-369;1-621, R263A;K268A;K308A).
T3 sequence 1: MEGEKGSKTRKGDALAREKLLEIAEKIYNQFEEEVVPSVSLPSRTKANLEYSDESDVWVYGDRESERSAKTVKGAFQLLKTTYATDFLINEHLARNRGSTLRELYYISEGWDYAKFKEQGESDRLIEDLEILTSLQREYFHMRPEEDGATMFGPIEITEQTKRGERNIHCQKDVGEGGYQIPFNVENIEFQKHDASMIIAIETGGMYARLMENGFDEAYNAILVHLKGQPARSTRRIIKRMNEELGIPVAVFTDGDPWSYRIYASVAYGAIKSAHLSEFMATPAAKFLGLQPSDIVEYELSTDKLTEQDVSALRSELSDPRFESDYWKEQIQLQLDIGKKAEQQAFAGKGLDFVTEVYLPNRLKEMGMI
T3 sequence 2: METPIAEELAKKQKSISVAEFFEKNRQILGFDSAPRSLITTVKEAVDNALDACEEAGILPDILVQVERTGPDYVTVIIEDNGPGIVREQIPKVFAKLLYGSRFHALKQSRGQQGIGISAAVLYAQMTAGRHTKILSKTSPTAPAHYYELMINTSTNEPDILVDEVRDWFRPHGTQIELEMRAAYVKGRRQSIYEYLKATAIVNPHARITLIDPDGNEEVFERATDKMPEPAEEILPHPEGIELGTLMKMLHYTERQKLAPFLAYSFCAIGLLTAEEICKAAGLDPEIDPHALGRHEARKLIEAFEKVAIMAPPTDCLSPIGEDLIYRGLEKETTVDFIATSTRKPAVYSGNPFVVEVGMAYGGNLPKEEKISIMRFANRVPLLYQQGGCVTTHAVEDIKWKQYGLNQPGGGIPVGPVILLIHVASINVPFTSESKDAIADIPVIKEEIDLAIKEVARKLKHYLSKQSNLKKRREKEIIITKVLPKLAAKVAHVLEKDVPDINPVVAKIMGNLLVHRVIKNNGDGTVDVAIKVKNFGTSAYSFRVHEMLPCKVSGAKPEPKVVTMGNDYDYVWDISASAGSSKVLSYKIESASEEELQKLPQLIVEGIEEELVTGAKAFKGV
As to conditions: protein: recombinant, tags: N-terminal His6-TEV on Top6B, removed, chain copies: 2;2.

[1] abbreviates: label: 5'-FAM strand 2, four-way Holliday junction, stacked-X, two GAAA-capped arms.

B1: 70 bp duplex (dsDNA)
DNA 1: CCAAATGCTTCAATAATATTGAAAAAGGAAGAGTATGAGTATTCAACATTTCCGTGTCGCCCTTATTCCC
DNA 2: GGGAATAAGGGCGACACGGAAATGTTGAATACTCATACTCTTCCTTTTTCAATATTATTGAAGCATTTGG
For the molecule B1, the equilibrium dissociation constant (Kd) in the data set with topo VI KGRR-AAA amounted to 124 ± 6 nM; in the data set with topo VI holoenzyme WT (label: 5'-FAM strand 1, blunt), 62 ± 4 nM; in the data set with topo VI H2TH-AAA (label: 5'-FAM strand 1, blunt) it was 180 ± 12 nM.

B2: 30 bp duplex (dsDNA)
DNA 1: CAAAAAGGAAGAGTATGAGTATTCAACATC
DNA 2: GATGTTGAATACTCATACTCTTCCTTTTTG
Turning to B2, the Kd with topo VI KGRR-AAA turned out to be 65 ± 4 nM; with topo VI holoenzyme WT (label: 5'-FAM strand 1, blunt), 84 ± 6 nM; in the data set with topo VI H2TH-AAA (label: 5'-FAM strand 1, blunt), 94 ± 4 nM.

B3: 20 bp duplex (dsDNA)
DNA 1: CGGAAGAGTATGAGTATTCG
DNA 2: CGAATACTCATACTCTTCCG
As to B3, the Kd with topo VI KGRR-AAA is 338 ± 11 nM; with topo VI holoenzyme WT (label: 5'-FAM strand 1, blunt) it was 427 ± 16 nM; with topo VI H2TH-AAA (label: 5'-FAM strand 1, blunt), 505 ± 22 nM.

B4: 40 bp duplex (dsDNA)
DNA 1: CTATTGAAAAAGGAAGAGTATGAGTATTCAACATTTCCGC
DNA 2: GCGGAAATGTTGAATACTCATACTCTTCCTTTTTCAATAG
With B4, the dissociation constant (Kd) is 67 ± 4 nM with topo VI KGRR-AAA; 49 ± 3 nM in the data set with topo VI holoenzyme WT (label: 5'-FAM strand 1, blunt); 58 ± 3 nM with topo VI H2TH-AAA (label: 5'-FAM strand 1, blunt).

B5: 60 bp duplex (dsDNA)
DNA 1: CGCTTCAATAATATTGAAAAAGGAAGAGTATGAGTATTCAACATTTCCGTGTCGCCCTTC
DNA 2: GAAGGGCGACACGGAAATGTTGAATACTCATACTCTTCCTTTTTCAATATTATTGAAGCG
Regarding B5, the Kd was found to be 99 ± 2 nM with topo VI KGRR-AAA; 38 ± 2 nM in the data set with topo VI holoenzyme WT (label: 5'-FAM strand 1, blunt); 167 ± 9 nM with topo VI H2TH-AAA (label: 5'-FAM strand 1, blunt).

B6: 16 x 20 bp stacked junction (structured_DNA)
DNA 1: CGAATACTCAGCTCAACCGAAAGGTTGAGCCTTCGCTCGAAAGAGCGAAGTACTCTTCCG
DNA 2: CGGAAGAGTATGAGTATTCG
On to B6, for which the Kd in the data set with topo VI holoenzyme WT (setting [1]) was 122 ± 4 nM; with topo VI H2TH-AAA (setting [1]), 181 ± 8 nM.
